Among the data in PMC8361300 are stoichiometry N and Kd values, retold here.

The target in assay [1] is Nucleobindin-2 from Homo sapiens (hsNucb2) (Homo sapiens). In words: AUC; sedimentation velocity, 50,000 rpm, 20 °C, buffer C (20 mM Tris-HCl, 150 mM NaCl, pH 7.5) with 5 mM EDTA (apo); protein 0.5, 0.75 and 1.0 mg/ml; c(s) model.
For assay [2] the target is unchanged. In words: SAXS; protein 3.5 mg/ml with 5 mM EDTA, 10 mM Ca2+, 10 mM Mg2+ or 100 µM Zn2+; molecular mass from I(0) against BSA.
Assay [3] addresses Nucleobindin-2 from Gallus gallus (Gallus gallus). Put plainly: ITC; Ca2+ (4000 µM) titrated into ggNucb2 (50 µM), 25 °C, 20 mM HEPES, 150 mM NaCl, pH 7.5; broad range fit to the AA BB model with ligand-mediated dimerization ((A + A) + B + B to (AA)BB) in SEDPHAT; constant of the step monomers to dimer. For orientation: In ITC the heat of successive injections is recorded.
Assay [4] has as its target Nucleobindin-2 from Gallus gallus (ggNucb2) (Gallus gallus). In words: AUC; sedimentation velocity, 50,000 rpm, 20 °C, buffer C (20 mM Tris-HCl, 150 mM NaCl, pH 7.5) with 100 µM ZnCl2 (also 200 and 300 µM); protein 0.5, 0.75 and 1.0 mg/ml; c(s) model.
Assay [5] has the same target. Put plainly: SAXS; protein 3.5 mg/ml with 5 mM EDTA, 10 mM Ca2+, 10 mM Mg2+ or 100 µM Zn2+; molecular mass from I(0) against BSA.

One may read the stoichiometry N as the number of molecules, sites or subunits per partner or assembly. As for “Nucleobindin-2 from Homo sapiens (hsNucb2) (natural protein)”, the stoichiometry N in assay [1] and in assay [2] was 2 throughout. The Kd is a measure of binding affinity in units of concentration. “Nucleobindin-2 from Gallus gallus (natural protein)”: the equilibrium dissociation constant (Kd) in assay [3] was 16 nM. “Nucleobindin-2 from Gallus gallus (ggNucb2) (natural protein)”: the stoichiometry N was > 2 in assay [4] and 2 in assay [5].
